{"source": "patent US8202973B2", "about": "“Method for the production of vitamin K-dependent proteins” (Novo Nordisk Health Care AG, priority 2000, dated 2012)", "data": [{"biological_target": "T1, gamma-glutamyl carboxylase (Homo sapiens, UniProt P38435)", "T1 sequence (P38435 1-758)": "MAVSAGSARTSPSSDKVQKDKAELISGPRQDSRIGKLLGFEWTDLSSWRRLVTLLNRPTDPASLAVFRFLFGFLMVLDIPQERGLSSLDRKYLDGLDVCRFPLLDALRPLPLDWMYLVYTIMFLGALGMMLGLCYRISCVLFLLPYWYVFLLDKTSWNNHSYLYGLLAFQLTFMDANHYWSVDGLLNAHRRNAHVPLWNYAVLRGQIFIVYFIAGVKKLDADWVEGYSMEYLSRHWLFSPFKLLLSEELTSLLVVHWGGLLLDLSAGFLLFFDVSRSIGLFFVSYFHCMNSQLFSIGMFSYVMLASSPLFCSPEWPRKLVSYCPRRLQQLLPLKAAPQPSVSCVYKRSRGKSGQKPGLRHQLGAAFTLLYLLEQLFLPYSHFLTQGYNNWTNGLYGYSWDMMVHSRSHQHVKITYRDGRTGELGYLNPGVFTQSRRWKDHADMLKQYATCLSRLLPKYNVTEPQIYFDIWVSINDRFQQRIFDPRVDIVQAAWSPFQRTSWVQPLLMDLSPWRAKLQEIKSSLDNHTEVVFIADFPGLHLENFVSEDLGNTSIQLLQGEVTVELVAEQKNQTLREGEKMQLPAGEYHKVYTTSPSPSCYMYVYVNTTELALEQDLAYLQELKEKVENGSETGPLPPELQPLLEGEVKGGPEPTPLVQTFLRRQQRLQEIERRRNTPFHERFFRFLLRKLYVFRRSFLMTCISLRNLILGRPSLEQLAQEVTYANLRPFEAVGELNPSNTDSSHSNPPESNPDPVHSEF", "assay": "not given", "conditions": "free propeptide of vitamin K-dependent protein, positions -18 to -1; cited from earlier work", "units": {"Ki": "nM"}, "values": [{"substance": "propeptide of proline-rich Gla protein 1, RVFLTGEKANSILKRYPR (SEQ ID NO:5) (listed as Homo sapiens) [PRGP1]", "Ki": 12.8}, {"substance": "propeptide of Prothrombin, HVFLAPQQARSLLQRVRR (SEQ ID NO:6) (listed as Homo sapiens)", "Ki": 277}, {"substance": "consensus propeptide sequence AVFLSREQANQVLQRRRR (SEQ ID NO:1) (listed as Homo sapiens)", "Ki": 0.43}, {"substance": "propeptide of FVII, AVFVTQEEAHGVLHRRRR (SEQ ID NO:7); expressed free from plasmid pLN329 (listed as Homo sapiens)", "Ki": 11.1}, {"substance": "propeptide of Protein C, SVFSSSERAHQVLRIRKR (SEQ ID NO:9) (listed as Homo sapiens)", "Ki": 230}, {"substance": "propeptide of Protein S, ANFLSKQQASQVLVRKRR (SEQ ID NO:4) (listed as Homo sapiens)", "Ki": 12.2}, {"substance": "propeptide of factor X, SLFIRREQANNILARVTR (SEQ ID NO:2) (listed as Homo sapiens)", "Ki": 2.6}, {"substance": "propeptide of Matrix Gla Protein, NPFINRRNANTFISPQQR (SEQ ID NO:3)", "Ki": 5.8}]}, {"tested_on": "CHO-K1 cells", "assay": "FVII expression of CHO-K1 cells coexpressing FVII and a free FVII propeptide", "assay_type": "cell-based", "conditions": "pools of CHO-K1 transfectants, pLN174 plus FVII propeptide in pcDNA3.1+; control with empty vector approximately 1 pg/cell/day", "experimental": "CHO K1 cells (ATCC CCI61) were transfected with equal amounts of pLN174 and pLN329 with the Fugene6 method (Boehriner-Mannheim). Transfectants were selected by the addition of methotrexate to 1 μM and G-418 to 0.45 mg/ml. The pool of transfectants were cloned by limiting dilution and FVII expression from the clones was measured.\nCHO-K1 cells were transfected with pLN174 and 1) empty pcDNA3.1+ vector or 2) FVII propeptide in pcDNA3.1+, as described in Example 1. Pools of transfectants were analysed for FVII expression and cell numbers. The FVII yields pr. cell pr. 24 hours are outlined in FIG. 3.", "units": {"FVII yields pr. cell pr. 24 hours": "pg/cell/day"}, "values": [{"substance": "propeptide of FVII, AVFVTQEEAHGVLHRRRR (SEQ ID NO:7); expressed free from plasmid pLN329 (listed as Homo sapiens)", "FVII yields pr. cell pr. 24 hours": "~4"}]}]}
